Data set [1] in a line: High-activity CocE mutant accelerated BZE metabolism in vivo (rat blood BZE and BA by HPLC). On the set-up: species or system SD rats. Particulars: for BZE metabolism in rats (in words): 0.2 or 1 mg/kg mutant i.v., then 2 mg/kg BZE i.v., FIGS. 3A and 3B. As to the method: Experimental male SD rats (200 g/rat) purchased from Laboratory Animal Center of Zhejiang Academy of Medical Sciences were raised in a constant-temperature and constant-humidity environment. The feeding and experimental application was carried out by following Guide for the Care and Use of Laboratory Animals.
Blood was collected from the femoral vein of rats using a blood collection needle and a heparin-treated capillary. Firstly, eight tubes of blood from the same rat, 75 μL in each tube, were added to 100 μL of 250 μM paraxon to inhibit the effect of endogenous metabolizing enzymes on BZE, and frozen at −80° C. After thawing, 19.7 μL of mixed solution containing 0, 4, 10, 20, 40, 60, 100 and 200 μM BA and BE standards, then subjected to vortex for 20 seconds, and then added with 150 μL of acetonitrile and subjected to vortex for 1 minutes, then added with 50 μL of 10% HClO4 and subjected to vortex for 1 minutes, centrifuged at 17,000 rcf for 15 minutes, and then centrifuged again after the supernatant was transferred. 250 μL of supernatant were taken out for HPLC analysis. The sample volume was 100 μL, and the HPLC experimental conditions were the same as those in Embodiment 3. The concentrations of BZE and BA in the final standard samples were 0, 0.2, 0.5, 1, 2, 3, 5 and 10 μM respectively.
There were 5 rats in each group. Firstly, 0.2 or 1 mg/kg of high-active CocE mutant or normal saline was injected into the tail vein of rats, and 2 mg/kg BZE was injected into the tail vein within 1 minute. After BZE injection, 75 μL of blood samples were taken at the 0th, 2nd, 5th, 10th, 30th, 60th, 90th and 120th minutes respectively, and 100 μL of 250 μM paraxon were added in each sample, and then frozen at −80° C. After thawing, the samples were subjected to vortex for 20 seconds, then added with 150 μL of acetonitrile and subjected to vortex for 1 minute, then added with 50 μL of 10% HClO4 and subjected to vortex for 1 minute, centrifuged at 17,000 g for 15 minutes, and then centrifuged again after the supernatant was transferred. 250 μL of supernatant were taken out for HPLC analysis. The sample volume was 100 μL. The BA and BZE concentrations in the blood of rats in each group at different time points were calculated according to the blood sample standard curve of the standards, so as to obtain the metabolism of BZE with or without the high-activity CocE mutant.

The conditions of data set [2]: in vivo; cited from earlier work.
Data set [3] in a line: Enzyme activity analysis: in vitro catalytic reaction of CocE enzymes to substrate BZE (HPLC, Michaelis-Menten). It is filed as biochemical. Particulars: substrate BZE; for Km / kcat: 25° C., 0.1 M phosphate buffer pH 7.4. From the text: Firstly, an experimental method for detecting a substrate BZE and a product benzoic acid BA by HPLC was established. Both BZE and BA had strong ultraviolet absorption at 230 nm. In HPLC analysis, acetonitrile and 0.1% formic acid were used as mobile phases to separate BZE and BA by C18 liquid chromatography column. The absorption of BZE and BA at wavelength 230 nm was detected by an ultraviolet detector, and linear standard curves of BZE and BA were obtained. The activity of BZE reaction catalyzed by CocE was determined, and the reaction temperature was 25° C., with three repetitions in each group. An enzymatic reaction was started by 50 μL of substrate BZE solution with 50 μL of enzyme solution (diluted with 0.1 M phosphate buffer (pH 7.4)).
50 μL of 10% perchloric acid was added to stop the reaction, and then, 50 μL of acetonitrile was added, and the mixture was centrifuged at 12,000 rpm for 5 minutes. Then, the supernatant was diluted to an appropriate multiple and injected into […]. The peak time, peak areas and curves of BZE and BA were compared, and the residual BZE concentration and the BA concentration in the reaction sample were calculated. The kcat and KM of each mutant could be obtained by calculating the reaction rates of BA catalyzed by enzyme at different substrate concentrations, drawing a kinetic curve of the enzyme reaction with GraphPad Prism 8, and performing Michaelis-Menten kinetic analysis.

[4] abbreviates: rats, 2 mg/kg BZE i.v. without mutant, second minute.

Broadly, the Km is the concentration of substrate that gives half-maximal velocity. Broadly, the kcat is the maximal rate divided by the concentration of active sites.

On to `CN1[C@H]2CC[C@@H]1[C@@H](C(=O)O)[C@@H](OC(=O)c1ccccc1)C2` [BZE, benzoylecgonine, reference compound], for which, in data set [1] (setting [4]), the “BA concentration in the blood” value is listed as “less than 0.5 μM” and the “BZA concentration in the blood” value stood at 15.8 µM.
With `COC(=O)[C@H]1[C@@H](OC(=O)c2ccccc2)C[C@@H]2CC[C@H]1N2C` [cocaine], in data set [2], the “share of cocaine bio-converted by BChE and CE-2 to ecgonine methyl ester (EME)” value is “about 40%”; the “share of cocaine hydrolyzed by CE-1 in liver to benzoyllecgonine (BZE)” value is 45%.

B1: T172R/G173Q/L196C/I301C/V116K/A51L: cocaine esterase mutant of SEQ ID No. 1 with the named mutations (protein, UniProt Q9L9D7 1-574, looked up, variant T172R G173Q L196C I301C V116K A51L)
Cocaine esterase: MVDGNYSVASNVMVPMRDGVRLAVDLYRPDADGPVPVLLVRNPYDKFDVFLWSTQSTNWLEFVRDGYAVVIQDTRGLFASEGEFVPHVDDEADAEDTLSWILEQAWCDGNVGMFGKSYLGVTQWQAAVSGVGGLKAIAPSMASADLYRAPWYGPGGALSVEALLGWSALIGRQLITSRSDARPEDAADFVQLAAICNDVAGAASVTPLAEQPLLGRLIPWVIDQVVDHPDNDESWQSISLFERLGGLATPALITAGWYDGFVGESLRTFVAVKDNADARLVVGPWSHSNLTGRNADRKFGCAATYPIQEATTMHKAFFDRHLRGETDALAGVPKVRLFVMGIDEWRDETDWPLPDTAYTPFYLGGSGAANTSTGGGTLSTSISGTESADTYLYDPADPVPSLGGTLLFHNGDNGPADQRPIHDRDDVLCYSTEVLTDPVEVTGTVSARLFVSSSAVDTDFTAKLVDVFPDGRAIALCDGIVRMRYRETLVNPTLIEAGEIYEVAIDMLATSNVFLPGHRIMVQVSSSNFPKYDRNSNTGGVIAREQLEEMCTAVNRIHRGPEHPSHIVLPIIKR
Consider B1, for which the “BZE metabolism in rats (in words)” value in data set [1] is reported as “accelerating BZE metabolism”. In data set [3], the “RCE, ratio of catalytic efficiency of the mutant enzyme to BZE and that of the wildtype enzyme” value (“RCE, ratio” for short) is 536.5; the Km was determined as 27.8 µM; the kcat worked out at 14.6 s⁻¹.

B2: T172R/G173Q/L196C/I301C/V116K/A51V: cocaine esterase mutant of SEQ ID No. 1 with the named mutations (protein, UniProt Q9L9D7 1-574, looked up, variant T172R G173Q L196C I301C V116K A51V)
Cocaine esterase: MVDGNYSVASNVMVPMRDGVRLAVDLYRPDADGPVPVLLVRNPYDKFDVFVWSTQSTNWLEFVRDGYAVVIQDTRGLFASEGEFVPHVDDEADAEDTLSWILEQAWCDGNVGMFGKSYLGVTQWQAAVSGVGGLKAIAPSMASADLYRAPWYGPGGALSVEALLGWSALIGRQLITSRSDARPEDAADFVQLAAICNDVAGAASVTPLAEQPLLGRLIPWVIDQVVDHPDNDESWQSISLFERLGGLATPALITAGWYDGFVGESLRTFVAVKDNADARLVVGPWSHSNLTGRNADRKFGCAATYPIQEATTMHKAFFDRHLRGETDALAGVPKVRLFVMGIDEWRDETDWPLPDTAYTPFYLGGSGAANTSTGGGTLSTSISGTESADTYLYDPADPVPSLGGTLLFHNGDNGPADQRPIHDRDDVLCYSTEVLTDPVEVTGTVSARLFVSSSAVDTDFTAKLVDVFPDGRAIALCDGIVRMRYRETLVNPTLIEAGEIYEVAIDMLATSNVFLPGHRIMVQVSSSNFPKYDRNSNTGGVIAREQLEEMCTAVNRIHRGPEHPSHIVLPIIKR
In the case of B2, the “BZE metabolism in rats (in words)” value in data set [1] is “accelerating BZE metabolism”. Besides, in data set [3], the “RCE, ratio” value was determined as 137.6; the Km came out at 86.2 µM; the kcat turned out to be 11.55 s⁻¹.

B3: T172R/G173Q/V116K: cocaine esterase mutant of SEQ ID No. 1 with the named mutations (protein, UniProt Q9L9D7 1-574, looked up, variant T172R G173Q V116K)
Cocaine esterase: MVDGNYSVASNVMVPMRDGVRLAVDLYRPDADGPVPVLLVRNPYDKFDVFAWSTQSTNWLEFVRDGYAVVIQDTRGLFASEGEFVPHVDDEADAEDTLSWILEQAWCDGNVGMFGKSYLGVTQWQAAVSGVGGLKAIAPSMASADLYRAPWYGPGGALSVEALLGWSALIGRQLITSRSDARPEDAADFVQLAAILNDVAGAASVTPLAEQPLLGRLIPWVIDQVVDHPDNDESWQSISLFERLGGLATPALITAGWYDGFVGESLRTFVAVKDNADARLVVGPWSHSNLTGRNADRKFGIAATYPIQEATTMHKAFFDRHLRGETDALAGVPKVRLFVMGIDEWRDETDWPLPDTAYTPFYLGGSGAANTSTGGGTLSTSISGTESADTYLYDPADPVPSLGGTLLFHNGDNGPADQRPIHDRDDVLCYSTEVLTDPVEVTGTVSARLFVSSSAVDTDFTAKLVDVFPDGRAIALCDGIVRMRYRETLVNPTLIEAGEIYEVAIDMLATSNVFLPGHRIMVQVSSSNFPKYDRNSNTGGVIAREQLEEMCTAVNRIHRGPEHPSHIVLPIIKR
On to B3, for which, in data set [3], the “RCE, ratio” value worked out at 110.8; the Michaelis-Menten constant (Km) worked out at 65.6 µM; the kcat was determined as 7.087 s⁻¹.

B4: T172R/G173Q: CocE T172R/G173Q mutant that completed the clinical test II phase of cocaine detoxification (protein, listed as Rhodococcus sp.)
chain: MVDGNYSVASNVMVPMRDGVRLAVDLYRPDADGPVPVLLVRNPYDKFDVFAWSTQSTNWLEFVRDGYAVVIQDTRGLFASEGEFVPHVDDEADAEDTLSWILEQAWCDGNVGMFGVSYLGVTQWQAAVSGVGGLKAIAPSMASADLYRAPWYGPGGALSVEALLGWSALIGRQLITSRSDARPEDAADFVQLAAICNDVAGAASVTPLAEQPLLGRLIPWVIDQVVDHPDNDESWQSISLFERLGGLATPALITAGWYDGFVGESLRTFVAVKDNADARLVVGPWSHSNLTGRNADRKFGCAATYPIQEATTMHKAFFDRHLRGETDALAGVPKVRLFVMGIDEWRDETDWPLPDTAYTPFYLGGSGAANTSTGGGTLSTSISGTESADTYLYDPADPVPSLGGTLLFHNGDNGPADQRPIHDRDDVLCYSTEVLTDPVEVTGTVSARLFVSSSAVDTDFTAKLVDVFPDGRAIALCDGIVRMRYRETLVNPTLIEAGEIYEVAIDMLATSNVFLPGHRIMVQVSSSNFPKYDRNSNTGGVIAREQLEEMCTAVNRIHRGPEHPSHIVLPIIKR
Turning to B4, in data set [3], the “RCE, ratio” value came to 1.6; the Km came to 4360 µM; the kcat was 6.978 s⁻¹.

The values are drawn from US12180519B2, “Cocaine esterase mutant and use thereof” (Hangzhou Normal University, priority 2021, dated 2024).
